Molecular target: the molecule itself
Test: gel filtration (Superose 200); dynamic light scattering with MgCl2 also gave a monodisperse, dimeric sample; homodimer self-association

B1: recombinant S. aureus thymidylate kinase (with polyhistidine [his6] sequence tag) (enzyme)
chain: MGSAFITFEGPEGSGKTTVINEVYHRLVKDYDVIMTREPGGVPTGEEIRKIVLEGNDMDIRTEAMLFAASRREHLVLKVIPALKEGKVVLCDRYIDSSLAYQGYARGIGVEEVRALNEFAINGLYPDLTIYLNVSAEVGRERIIKNSRDQNRLDQEDLKFHEKVIEGYQEIIHNESQRFKSVNADQPLENVVEDTYQTIIKYLEKIRSHHHHHH
notes: Expressed in E. coli with a His6 tag; The crystals used for the structure were of the selenomethionine analogue (methionines replaced by selenomethionine); Gel filtration and light scattering appear to have used the native protein; also called S. aureus TMK; T. kinase
B1: binds.

Source: patent US20040171050A1 (PHARMACIA AND UPJOHN, published 2004)
